Laboratory results reported in patent US20180312564A1 (VERSITECH, published 2018).

How the values were obtained:
human PD-L2 = biological target: T1, human PD-L2 (human, UniProt Q9BQ51 20-273); assay: flow cytometry on 293T cells transfected with human PD-L2, anti-rabbit Fc detection
T1 construct: whole, on cells; also called CD273; B7-DC
T1 sequence (looked up): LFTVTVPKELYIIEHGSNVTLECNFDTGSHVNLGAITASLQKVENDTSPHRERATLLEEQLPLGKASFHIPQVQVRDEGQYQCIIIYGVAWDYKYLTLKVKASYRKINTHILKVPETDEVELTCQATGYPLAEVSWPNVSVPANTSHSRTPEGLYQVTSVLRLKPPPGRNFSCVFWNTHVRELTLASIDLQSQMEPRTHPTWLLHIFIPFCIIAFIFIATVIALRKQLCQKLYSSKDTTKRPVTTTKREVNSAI
Experimental: (§1) The results were analyzed by flow cytometry using a detection antibody against rabbit Fc (color lines) or isotype control (black line). […] Percentage of cells with positive staining (solid line) is shown with corresponding antibodies and isotype control (shaded). Data are representative of three independent experiments.

human PD-L1 = biological target: T2, human PD-L1 (human, UniProt Q9NZQ7 19-290); assay: flow cytometry on 293T cells transfected with human PD-L1, anti-rabbit Fc detection
T2 construct: whole, on cells; also called CD274; B7-H1
T2 sequence (Q9NZQ7 19-290): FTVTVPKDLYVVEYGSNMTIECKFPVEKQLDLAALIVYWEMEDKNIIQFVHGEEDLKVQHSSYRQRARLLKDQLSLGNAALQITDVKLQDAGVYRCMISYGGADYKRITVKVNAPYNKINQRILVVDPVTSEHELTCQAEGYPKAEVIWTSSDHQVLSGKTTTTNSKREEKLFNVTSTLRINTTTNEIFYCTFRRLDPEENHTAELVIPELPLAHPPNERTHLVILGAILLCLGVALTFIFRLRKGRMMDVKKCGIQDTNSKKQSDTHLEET
Experimental: as §1

B1: sΔ42PD1Fc (soluble Δ42PD1 fused with the rabbit IgG Fc domain) (Fc fusion)
chain: LALLVVTEGDNATFTCSFSNTSESFVLNWYRMSPSNQTDKLAAFPEDRSQPGQDCRFRVTQLPNGRDFHMSVVRARRNDSGTYLCGAISLAPKAQIKESLRAELRVTERRAEVPTAHPSPSPRPAGQLEATNTKVDKTVAPSTCSKPMCPPPELLGGPSVFIFPPKPKDTLMISRTPEVTCVVVDVSQDDPEVQFTWYINNEQVRTARPPLREQQFNSTIRVVSTLPIAHQDWLRGKEFKCKVHNKALPAPIEKTISKARGQPLEPKVYTMGPPREELSSRSVSLTCMINGFYPSDISVEWEKNGKAEDNYKTTPTVLDSDGSYFLYSKLSVPTSEWQRGDVFTCSVMHEALHNHYTQKSISHSPGK
- binding result (human PD-L2): no binding (tested: 0.5, 2, 5 and 20 µg/ml)
- binding result (human PD-L1): no binding (tested: 0.5, 2, 5 and 20 µg/ml)
